Data on one molecule can be found in publication PMC2233640, “Human NCU-G1 can function as a transcription factor and as a nuclear receptor co-activator”.

The target in this series is T1, NCU-G1 (kidney predominant protein), GST fusion (Homo sapiens, UniProt Q8WWB7 1-406).
T1 sequence: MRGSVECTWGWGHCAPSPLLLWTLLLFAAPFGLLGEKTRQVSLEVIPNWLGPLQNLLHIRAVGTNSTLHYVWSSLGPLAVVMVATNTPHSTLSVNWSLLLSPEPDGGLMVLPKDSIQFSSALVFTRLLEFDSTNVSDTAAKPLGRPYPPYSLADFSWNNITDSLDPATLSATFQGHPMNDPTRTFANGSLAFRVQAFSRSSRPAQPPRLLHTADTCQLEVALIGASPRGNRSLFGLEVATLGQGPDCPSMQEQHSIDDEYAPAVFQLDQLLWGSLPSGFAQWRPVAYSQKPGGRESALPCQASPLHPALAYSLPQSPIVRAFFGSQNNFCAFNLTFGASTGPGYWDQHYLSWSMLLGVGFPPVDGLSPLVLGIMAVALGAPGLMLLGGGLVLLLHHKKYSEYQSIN
Kind of series: competition; 50-fold molar excess unlabeled vs 32P-FP1, EMSA; EMSA: 3 x 10^4 cpm 32P probe with 2 ug GST-NCU-G1; buffer, salt, pH and temperature not given (as described in ref 17). To be noted: protein: recombinant; tags: N-terminal GST (pGEX-5X-3); double-stranded. On the technique in general: Mobility shift assays separate free from complexed probe on a gel.

B1: AP1 oligonucleotide (dsDNA)
DNA 1: CGCTTGATGACTCAGCCGGAA
DNA 2: TTCCGGCTGAGTCATCAAGCG
B1: the binding result is recorded as “no binding”.
